Blank lines part the entries; values can stand above or below the molecule they belong to.
Experiments:
GDF11 [1] = biological target: T1, GDF11 (Homo sapiens, UniProt O95390); test: A-204 reporter gene assay, pGL3(CAGA)12 luciferase; type: cell-based; settings: for inhibition of GDF11 signaling: A-204 reporter gene assay
T1 sequence (O95390 299-407): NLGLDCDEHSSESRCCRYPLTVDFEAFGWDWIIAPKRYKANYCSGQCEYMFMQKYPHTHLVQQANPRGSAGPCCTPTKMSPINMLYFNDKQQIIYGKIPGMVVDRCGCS
Description: (§1) An A-204 reporter gene assay was used to evaluate the effects of ActRIIB-Fc proteins and ActRIIB variant Fc fusion polypeptides on signaling by GDF-11 and activin A. Cell line: human rhabdomyosarcoma (derived from muscle). Reporter vector: pGL3(CAGA)12 (described in Dennler et al, 1998, EMBO 17: 3091-3100). The CAGA12 motif is present in TGF-beta responsive genes (e.g., PAI-1 gene), so this vector is of general use for factors signaling through SMADs.
(§2) Day 1: Split A-204 cells into 48-well plate.
(§3) Day 2: A-204 cells transfected with 10 ug pGL3(CAGA)12 or pGL3(CAGA)12(10 ug)+pRLCMV (1 pg) and Fugene.
(§4) Day 3: Add factors (diluted into medium+0.1% BSA). Inhibitors need to be preincubated with factors for 1 hr before adding to cells. Six hrs later, cells were rinsed with PBS and lysed.
(§5) This is followed by a luciferase assay.
(§6) Activity of ActRIIB-Fc proteins and ActRIIB variant Fc fusion polypeptides was tested in a cell-based assay as described above. Some variants were tested in different C-terminal truncation constructs. As discussed above, truncations of five or fifteen amino acids caused reduction in activity. […]

GDF11 [2] = biological target: T1, GDF11; test: Biacore assay, ActRIIB-Fc captured with anti-hFc antibody, ligand injected (Example 8); type: binding; settings: GDF11; Table 10
Method: (§7) Binding of certain ActRIIB-Fc proteins and ActRIIB variant Fc fusion polypeptides to ligands was tested in a Biacore™ assay.
(§8) The ActRIIB-Fc variants or wild-type protein were captured onto the system using an anti-hFc antibody. Ligands were injected and flowed over the captured receptor proteins.

activin A [3] = biological target: T2, activin A (Homo sapiens, UniProt P08476); test: as above; type: binding; settings: Activin A; Table 10
T2 sequence (P08476 311-426): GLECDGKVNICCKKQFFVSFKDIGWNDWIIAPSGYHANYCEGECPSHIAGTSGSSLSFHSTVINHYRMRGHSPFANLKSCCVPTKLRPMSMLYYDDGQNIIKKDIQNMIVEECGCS
Method: as §7, §8

GDF8 [4] = biological target: T3, GDF8 (Homo sapiens, UniProt O14793); test: as above; type: binding; settings: GDF8; Table 10
T3 sequence (O14793 267-375): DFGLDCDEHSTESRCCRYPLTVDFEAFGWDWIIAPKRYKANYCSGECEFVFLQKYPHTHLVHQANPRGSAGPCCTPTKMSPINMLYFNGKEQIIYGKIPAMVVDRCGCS
Method: as §7, §8

activin A [5] = biological target: T2, activin A; test: A-204 reporter gene assay, pGL3(CAGA)12 luciferase; type: cell-based; settings: for inhibition of activin A signaling: A-204 reporter gene assay
Description: as §1, §2, §3, §4, §5, §6

GDF8 [6] = biological target: T3, GDF8; test: A-204 reporter gene assay, pGL3(CAGA)12 luciferase; type: cell-based
Description: as §1, §2, §3, §4, §5
As described below, ActRIIB variants were also tested in this assay.
(§9) In addition, an A-204 Reporter Gene Assay was used to evaluate the effects of ALK4-Fc:ActRIIB-Fc heterodimer and ActRIIB-Fc:ActRIIB-Fc homodimer on signaling by activin A, activin B, GDF11, GDF8, BMP10, and BMP9. Cell line: Human Rhabdomyosarcoma (derived from muscle). Reporter vector: pGL3(CAGA)12 (as described in Dennler et al, 1998, EMBO 17: 3091-3100). The CAGA12 motif is present in TGFβ responsive genes (PAI-1 gene), so this vector is of general use for factors signaling through Smads. An exemplary A-204 Reporter Gene Assay is outlined below. • Day 1: Split A-204 cells into 48-well plate. • Day 2: A-204 cells transfected with 10 ug pGL3(CAGA)12 or pGL3(CAGA)12(10 ug)+pRLCMV (1 ug) and Fugene. • Day 3: Add factors (diluted into medium+0.1% BSA). Inhibitors need to be pre-incubated with Factors for about one hr before adding to cells. About six hrs later, cells are rinsed with PBS and then lysed.
(§10) Following the above steps, a Luciferase assay was performed.

GDF11 [7] = biological target: T1, GDF11; test: Biacore ligand affinity of ActRIIB-hFc forms, steady-state affinity fit; type: binding; settings: Table 12; Kd by steady-state affinity fit; read-out: GDF11 (Kd e−11)
Method: (§11) Affinities of several ligands for ActRIIB(25-131)-hFc and its full-length counterpart ActRIIB(20-134)-hFc were evaluated in vitro with a Biacore™ instrument, and the results are summarized in Table 8 below. Kd values were obtained by steady-state affinity fit due to very rapid association and dissociation of the complex, which prevented accurate determination of kon and koff. ActRIIB(25-131)-hFc bound, for example, activin A, activin B, and GDF11 with high affinity.
(§12) The affinity of ActRIIB variants and other ActRIIB-hFc proteins for several ligands was evaluated in vitro with a Biacore™ instrument. Kd values were obtained by steady-state affinity fit due to the very rapid association and dissociation of the complex, which prevented accurate determination of kon and koff.

activin A [8] = biological target: T2, activin A; test: as above; type: binding; settings: Table 12; Kd by steady-state affinity fit; read-out: Activin A (Kd e−11)
Method: as §11, §12

activin B [9] = biological target: T4, activin B (Homo sapiens, UniProt P09529); test: as above; type: binding; settings: Table 12; Kd by steady-state affinity fit; read-out: Activin B (Kd e−11)
T4 sequence (P09529 293-407): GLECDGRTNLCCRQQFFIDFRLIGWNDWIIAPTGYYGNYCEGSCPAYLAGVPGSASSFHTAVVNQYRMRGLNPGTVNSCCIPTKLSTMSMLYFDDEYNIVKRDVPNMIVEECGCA
Method: as §11, §12

GDF11 [10] = biological target: T1, GDF11; test: Biacore ligand binding profile, ALK4-Fc:ActRIIB-Fc heterodimer vs homodimers, anti-Fc capture (Example 13, Table 13)
Method: (§13) A Biacore™-based binding assay was used to compare ligand binding selectivity of the ALK4-Fc:ActRIIB-Fc heterodimeric complex described above with that of ActRIIB-Fc and ALK4-Fc homodimer complexes. The ALK4-Fc:ActRIeB-Fc heterodimer, […], and ALK4-Fc homodimer were independently captured onto the system using an anti-Fc antibody. Ligands were injected and allowed to flow over the captured receptor protein. Results are summarized in Table 13 below, in which ligand off-rates (kd) most indicative of effective polypeptides are denoted in bold.

activin A [11] = biological target: T2, activin A; test: as above
Method: as §13

GDF8 [12] = biological target: T3, GDF8; test: as above
Method: as §13

BMP10 = biological target: T5, BMP10 (Homo sapiens, UniProt O95393); test: as above; settings: ligand BMP10, Table 13
T5 sequence (O95393 317-424): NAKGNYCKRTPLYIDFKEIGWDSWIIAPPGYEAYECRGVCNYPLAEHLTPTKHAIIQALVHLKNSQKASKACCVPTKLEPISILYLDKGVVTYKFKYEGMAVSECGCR
Method: as §13

activin B [13] = biological target: T4, activin B; test: as above; settings: ligand Activin B, Table 13
Method: as §13

GDF3 = biological target: T6, GDF3 (Homo sapiens, UniProt Q9NR23); test: as above; settings: ligand GDF3, Table 13
T6 sequence (Q9NR23 251-364): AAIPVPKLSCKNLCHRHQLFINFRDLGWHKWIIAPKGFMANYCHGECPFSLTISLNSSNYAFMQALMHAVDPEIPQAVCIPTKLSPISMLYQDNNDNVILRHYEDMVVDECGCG
Method: as §13

BMP6 = biological target: T7, BMP6 (Homo sapiens, UniProt P22004); test: as above
T7 sequence (P22004 375-513): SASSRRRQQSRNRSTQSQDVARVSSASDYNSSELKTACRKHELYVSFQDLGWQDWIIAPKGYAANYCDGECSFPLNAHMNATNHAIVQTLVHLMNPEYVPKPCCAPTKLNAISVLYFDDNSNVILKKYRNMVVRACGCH
Method: as §13

BMP9 = biological target: T8, BMP9 (Homo sapiens, UniProt Q9UK05); test: as above
T8 sequence (Q9UK05 320-429): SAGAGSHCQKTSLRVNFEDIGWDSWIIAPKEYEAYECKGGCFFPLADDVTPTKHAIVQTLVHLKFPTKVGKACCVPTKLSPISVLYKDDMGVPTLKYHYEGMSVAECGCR
Method: as §13

activin B [14] = biological target: T4, activin B; test: A-204 Reporter Gene Assay (Example 13); type: cell-based
Description: as §9, §10

[15] = In vivo activity of ActRIIA variant with substitution at X17; settings: substitution of A for K at X17
[16] = Table 9, cell-based A-204 assay

- inhibition of GDF11 signaling (GDF11 [1]): potent inhibitor
- Koff (GDF11 [2]): 0.000113 s⁻¹
- Koff (activin A [3]): 0.000159 s⁻¹
- Koff (GDF8 [4]): 3.45e-05 s⁻¹
- inhibition of activin A signaling (activin A [5]): potent inhibitor
- inhibition of GDF8 signaling (GDF8 [6]): potent inhibitor
- Kd (GDF11 [7]): 0.036 nM
- Kd (activin A [8]): 0.016 nM
- Kd (activin B [9]): 0.012 nM
B1: ActRIIB(20-134)-hFc: extracellular domain of human ActRIIB (residues 20-134, R64) fused to a human Fc domain with a minimal linker (protein)
chain: GRGEAETRECIYYNANWELERTNQSGLERCEGEQDKRLHCYASWRNSSGTIELVKKGCWLDDFNCYDRQECVATEENPQVYFCCCEGNFCNERFTHLPEAGGPEVTYEPPPTAPTGGGTHTCPPCPAPELLGGPSVFLFPPKPKDTLMISRTPEVTCVVVDVSHEDPEVKFNWYVDGVEVHNAKTKPREEQYNSTYRVVSVLTVLHQDWLNGKEYKCKVSNKALPVPIEKTISKAKGQPREPQVYTLPPSREEMTKNQVSLTCLVKGFYPSDIAVEWESNGQPENNYKTTPPVLDSDGSFFLYSKLTVDKSRWQQGNVFSCSVMHEALHNHYTQKSLSLSPGK
- GDF11 Inhibition Activity (GDF11 [1]; [16]): +++ (Good (wild-type) activity (roughly 1 × 10^−8 KI))
- Activin Inhibition Activity (activin A [5]; [16]): +++ (Good (wild-type) activity (roughly 1 × 10^−8 KI))

- GDF11 binding (GDF11 [10]; Example 13): strong binding
- ka (GDF11 [10]; ligand GDF11, Table 13): 5.0 × 10^7 1/MS
- kd (GDF11 [10]; ligand GDF11, Table 13): 0.00011 s⁻¹
- activin A binding (activin A [11]; Example 13): strong binding
- ka (activin A [11]; ligand Activin A, Table 13): 1.2 × 10^7 1/MS
- kd (activin A [11]; ligand Activin A, Table 13): 0.00023 s⁻¹
- GDF8 binding (GDF8 [12]; Example 13): strong binding
- ka (GDF8 [12]; ligand GDF8, Table 13): 8.3 × 10^5 1/MS
- kd (GDF8 [12]; ligand GDF8, Table 13): 0.00023 s⁻¹
- ka (BMP10): 2.3 × 10^7 1/MS
- kd (BMP10): 0.00026 s⁻¹
- ka (activin B [13]): 5.1 × 10^6 1/MS
- kd (activin B [13]): 0.0001 s⁻¹
- ka (GDF3): 1.4 × 10^6 1/MS
- kd (GDF3): 0.0022 s⁻¹
- BMP6 binding (BMP6; Example 13): intermediate-level binding
- ka (BMP6; ligand BMP6, Table 13): 3.2 × 10^7 1/MS
- kd (BMP6; ligand BMP6, Table 13): 0.0068 s⁻¹
- BMP9 binding (BMP9; Example 13): binds strongly
- ka (BMP9; ligand BMP9, Table 13): 1.4 × 10^7 1/MS
- kd (BMP9; ligand BMP9, Table 13): 0.0011 s⁻¹
- inhibition of GDF11 signaling (GDF11 [1]): potent inhibitors
- inhibition of activin A signaling (activin A [5]): potent inhibitors
- inhibition of activin B signaling (activin B [14]): potent inhibitors
- inhibition of GDF8 signaling (GDF8 [6]): potent inhibitors
B2: ActRIIB-Fc homodimer: ActRIIB-Fc homodimer complex used as comparator in Example 13 (protein)
chain: GRGEAETRECIYYNANWELERTNQSGLERCEGEQDKRLHCYASWRNSSGTIELVKKGCWLDDFNCYDRQECVATEENPQVYFCCCEGNFCNERFTHLPEAGGPEVTYEPPPTAPTGGGTHTCPPCPAPELLGGPSVFLFPPKPKDTLMISRTPEVTCVVVDVSHEDPEVKFNWYVDGVEVHNAKTKPREEQYNSTYRVVSVLTVLHQDWLNGKEYKCKVSNKALPVPIEKTISKAKGQPREPQVYTLPPSREEMTKNQVSLTCLVKGFYPSDIAVEWESNGQPENNYKTTPPVLDSDGSFFLYSKLTVDKSRWQQGNVFSCSVMHEALHNHYTQKSLSLSPGK

B3: SEQ ID NO: 283: ActRIIA variant with alanine (A) substituted for lysine (K) at X17 (protein)
chain: GAILGRSETQECLFYNANWELERTNQTGVERCEGEKDKRLHCYATWRNISGSIEIVAKGCWLDDFNCYDRTDCVETEENPQVYFCCCEGNMCNEKFSYFPEMEVTQPTS
- activity in vivo [15]: reduced activity in vivo

From patent US20230129812A1, “COMPOSITIONS AND METHODS FOR TREATING PULMONARY HYPERTENSION” (Acceleron Pharma Inc., priority 2020, published 2023)
